Experimental data as given in patent US20230357447A1 (JANUX THERAPEUTICS, published 2023).

Legend:
[1] = biological target: T1, Anti-CD28 scFv (VH-linker 1-VL) (biotinylated (site not stated)); assay: phage ELISA, scFv wells pre-incubated with soluble CD28 (competitor); background signal 0.061
T1 construct: biotinylated and captured on neutravidin coated plates in the phage ELISA

[2] = biological target: T1, Anti-CD28 scFv (VH-linker 1-VL); assay: phage ELISA, captured biotinylated scFv; background signal 0.061
Method: (§1) Clonal phage were harvested as crude supernatants and screened via standard enzyme linked immunosorbent assays (ELISAs). […] Prior to the addition of clonal phage, wells were incubated with blocking buffer and CD28 soluble protein or blocking buffer alone. Without washing or aspirating, clonal phage supernatants were then added to the wells and incubated for a short time. Wells were then washed followed by detection of bound phage using a horse radish peroxidase conjugated anti-M13 antibody.

[3] = biological target: T1, Anti-CD28 scFv (VH-linker 1-VL); assay: phage ELISA, captured biotinylated scFv; background signal 0.068
Method: as §1

[4] = biological target: T1, Anti-CD28 scFv (VH-linker 1-VL); assay: phage ELISA, scFv wells pre-incubated with soluble CD28 (competitor); background signal 0.068
Method: as §1

[5] = biological target: T1, Anti-CD28 scFv (VH-linker 1-VL); assay: phage ELISA, scFv wells pre-incubated with soluble CD28 (competitor); background signal 0.078
Method: as §1

[6] = biological target: T1, Anti-CD28 scFv (VH-linker 1-VL); assay: phage ELISA, captured biotinylated scFv; background signal 0.078
Method: as §1

[7] = biological target: T1, Anti-CD28 scFv (VH-linker 1-VL); assay: phage ELISA, scFv wells pre-incubated with soluble CD28 (competitor); background signal 0.063
Method: as §1

[8] = biological target: T1, Anti-CD28 scFv (VH-linker 1-VL); assay: phage ELISA, captured biotinylated scFv; background signal 0.063
Method: as §1

T1 sequence (scFv, as listed by the source): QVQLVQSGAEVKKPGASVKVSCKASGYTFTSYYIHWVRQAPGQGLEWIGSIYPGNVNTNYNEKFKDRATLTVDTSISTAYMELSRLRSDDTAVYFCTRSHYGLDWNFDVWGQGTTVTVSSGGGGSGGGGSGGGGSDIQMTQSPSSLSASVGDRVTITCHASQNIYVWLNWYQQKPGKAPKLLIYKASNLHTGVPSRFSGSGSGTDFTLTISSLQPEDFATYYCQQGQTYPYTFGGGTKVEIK

IDWCPRYLWDECYN [Phage-48]
Phage binding ELISA CD28 scFv signal in presence of CD28 [1]: 0.153 | Phage binding ELISA CD28 scFv signal [2]: 2.24

MNWCPRDMWYQCFN [Phage-54]
Phage binding ELISA CD28 scFv signal [3]: 1.95 | Phage binding ELISA CD28 scFv signal in presence of CD28 [4]: 0.177

MDWCPIHLWHYCFN [Phage-88]
Phage binding ELISA CD28 scFv signal in presence of CD28 [5]: 0.453 | Phage binding ELISA CD28 scFv signal [6]: 2.6

MDWCPRDLWDLCFA [Phage-25]
Phage binding ELISA CD28 scFv signal in presence of CD28 [5]: 0.219 | Phage binding ELISA CD28 scFv signal [6]: 2.7

MDWCPRDLWSECFF [Phage-28]
Phage binding ELISA CD28 scFv signal [3]: 2.57 | Phage binding ELISA CD28 scFv signal in presence of CD28 [4]: 0.218

MDWCPKDLWDYCFA [Phage-97]
Phage binding ELISA CD28 scFv signal in presence of CD28 [5]: 0.165 | Phage binding ELISA CD28 scFv signal [6]: 2.57

MDWCPRDLWHECFA [Phage-26]
Phage binding ELISA CD28 scFv signal in presence of CD28 [7]: 0.277 | Phage binding ELISA CD28 scFv signal [8]: 2.71

MDWCPRDLWAECFN [Phage-107]
Phage binding ELISA CD28 scFv signal in presence of CD28 [1]: 0.207

MDWCPRPLWHECFS [Phage-45]
Phage binding ELISA CD28 scFv signal in presence of CD28 [5]: 0.121 | Phage binding ELISA CD28 scFv signal [6]: 2.35

MDWCPRALWAECFN [Phage-63]
Phage binding ELISA CD28 scFv signal [3]: 2.68 | Phage binding ELISA CD28 scFv signal in presence of CD28 [4]: 0.339

MDWCPIYLWDECFN [Phage-106]
Phage binding ELISA CD28 scFv signal in presence of CD28 [1]: 0.215

MDWCPMDLWYQCFN [Phage-85]
Phage binding ELISA CD28 scFv signal in presence of CD28 [7]: 0.187 | Phage binding ELISA CD28 scFv signal [8]: 2.62

MDWCPPYLWNVCFS [Phage-50]
Phage binding ELISA CD28 scFv signal in presence of CD28 [7]: 0.1 | Phage binding ELISA CD28 scFv signal [8]: 1.64

MDWCPIDMWDQCFN [Phage-40]
Phage binding ELISA CD28 scFv signal in presence of CD28 [1]: 0.297 | Phage binding ELISA CD28 scFv signal [2]: 2.66
